Measurements as given in the nanobody polyreactivity screen of Harvey et al. (2022).

Assay: yeast display, Sf9 membrane polyspecificity reagent, FACS + sequencing; frameworks hold sequencing errors
Summary of the method: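 Sorting gates, low and high (top ~1%), were placed on anti-HA fluorescence to track expression and on streptavidin fluorescence to track reagent binding. A clone's polyreactivity label is taken from the gate it came out of. The reagent was 10% biotinylated, detergent-solubilized Sf9 membrane, applied for 1 hour at 4 °C to galactose-induced yeast display cells.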

Row | Sequence | polyreactivity (PSR sort gate)
1 | QVQLVESGGCLVQAGGSLRLSCAASGSIIYCYAMGWYRQAPGKERELVADISRGGITYYADSVKGRFTISRDNAKNTVYLQMNSLKPEDTAVYYCSKTHYGVQRLDSWGQGTQVTVSS | low polyreactivity
2 | QVQLVESGVGLVQAGGSLRLSCAPSGSIFGRNAMGWYRQAPGKERELVAAISGGGSTNYSDSVKGRFTISRDNAKNTVYLQMNSLKPEDTAVYYCNTYPGSRHWWYDYWGQGTQGTVSS | high polyreactivity
3 | QVQLVESGGGVVQAGGSLRLSCAASGITFSYYTMGWSRQAPGKERELVAAINWTGGDTYYADSVKGRFTISRDNAKNTVYLQMNSLNPEDTAVYYCNADYPYFYRFTAEYDYWGQGPQVTVSS | low polyreactivity
4 | QVQLVESGGGLVQAGGSLRLSCAATGSIFDYNAMGWYTQAPGKERELVAALTSGGSTNYADSVKGRFTISRDNAMNTVYLQMNSLKPEDTAVYYCAADHDYYPSNLDYWGQGTQVTVSS | low polyreactivity
5 | QVQLLESGGGLVQAGGSLRLSCAASGRTFRSYAMGWYRQAPGKERELVAAISRSDGSTYYAESVKVRFTISRDNAKNTVYLQMNSLKPEDTAVYYCARSLYASSYLMYYWGQGTQVTVSS | high polyreactivity
6 | QDQLVDSGGGLVQAGGSLRLSSSDSGSIFRYYTMGWYRQSPGKERELVARISSSRSTNYADSVKGRFTISRDNAKNTVYLQMNSLKPEDTEVYYCAARAFSWAGFYYWGQGTQVTVSS | low polyreactivity
7 | QVQLVESGGGLVQAGGSLRLSCAASGRTFEYYAMGWYRQAPGKERELVASITSGGITNYADSVKGRFTISRDNAKNTVYLQMNSLKPEDTAVYYCNKRPWTRFDWGQGTQVTVSS | low polyreactivity
8 | QVQLVESGGGLVQAGGILRLSCAASGLIFITYAMGWYRQAPGKERELVATITLRGGSTYYADSVKGRFTISRDNAKNTVYLQMNSLKPEDTAVYYCAADVGYWGRSRGYPSDDYDYWGQGTQVTVSS | low polyreactivity
9 | QVQLVESRRGLVQAGGSIRLSCAASGSTFPYNAMGWYRQAPGKDRELVAAITSAGGTNYADSVKGRFTISRDNAKNSVYLQMNSLKPEDSAVYSCAAVGSGYYDGYFYWGQGTQVTVSS | low polyreactivity
10 | QVQLVESWGGLVQAGGSLRLSCAASGRIFYDYAMGWYRQAPGKERELVAAISKGGGSTYYADSVKGRFTISRDNAKKTVYLQMNSLKAEDTAVYFCAASTSHTTDTRYDYWGQGTQVTVSS | low polyreactivity
11 | QVQLVESGGGLDQAGGSLRSSCAASGRIFPSYAMGWYRQAPGKERELVAAISRSGGSTYYADSVKGRFTISRDNAKNTVDLQMICLKPEDTGVYYCAKQVYSGYSTRARSRYYEYYYWGQGNQVTVSS | high polyreactivity
12 | QVQLRESGAGGRQPAPELRCERQYFYWSADGLVSQPPGKEREFVAGIDRGTITNYADSVRGRFTISRDNAKNTVYLQMNSLKPEDTAVYYCNAEYRRRPKLGDEDEYWGHGTQVTVSS | high polyreactivity
13 | QVQLVESGGGLVQAGGSLRLSCAASGRTFKRNAMGWYRQAPGKERELVAGISTGGSTNYADSVKGRFTISRDNAKNTVYLQMNSLKPEDTAVYYCAARYRTDWTPGYHVGYYYWGQGTQVTVSS | high polyreactivity
14 | QVQLVESGGGLVQAGGSLRLSCAASGSIFKYYAMGWYRQAPGKERELVAAITGSGGNTYYADSVKGRFTISRDNAKNTVYLQMNSLKPEDTAVYYCAATYWWAYVWAYSHVKSTNDYWGQGTQVTVSS | low polyreactivity
15 | QVQLVESRGGLVQAGGSLRLSCAASGFILSWYAMGWYRQARGKERELVAAISTSGDSTYYADSVKGRFTISRDNAKNTVYVQMNRLKPEDTAVYYCAAVKVSAGTSRGYYYWGPGTQVTVSS | high polyreactivity
16 | QVQLVESGGGLVQAGGSLRLSGAASGSIFSVYAMGWYRQAPGKERELVASISRSGGSTYYADSVKGRFTISRDNAKNTVYLQMNSLKPEDTAVYYCAAYHPIQEYDYWGQGTQVTVSS | high polyreactivity
17 | QVQLVESGGGLVQAGGSLRLSGAASGITFGDYAMGWYRQEPGKERELVAAISYSGGSTYYTDSVKGRFTISRDNAKNTVYLQMNSLKPEDTAVYYCAARFRQLGLAYYYWGQGTQVTVSS | high polyreactivity
18 | QVQLVESWGGLVQAGGSLRLSCAASGSIFPWYAMGWYREAPGKERELVAAISKSGAGTYYADSVKGRFTISRDNAKNTVYLQMNSLKPEDTAVYYCNAVYRKTSYGYWGQGTQVTVSS | high polyreactivity
19 | QVQLVESGGGLVQAGGSLRLSCAASGNIFESYGMGWYRQAPGKERELVATINTSSGSTYYADSVKGRFTISRDNAKNSVYVQMNSLKPEDTAVYYCAAEWYPYPWGYGYWGQGTQVTVSS | low polyreactivity
20 | QVQLVESGGGLVQAGGSLRLSCAASGSTFLRNAMGWYRQAPGKERQLVAAISRRGGSTYYADSVKGRFTISRDNAKNTVYLQMNSLKPEDTSVYYCAKDYRSPISGDYWGQGTQVTVSS | high polyreactivity
21 | QVQLVESGGGLVQAGGSLRLSCAASGSIFTYNAMGWYRQAPGKERELVASITWSGGSTYYADSVKGRFTISRDNAKNTVYLQMNSLKPEDTAVYYCAAKRVHGATGYWGQGTQVTVSS | high polyreactivity
